Data published in article PMC5364480.

Experiments:
…3 (Arabidopsis) = …3 (Arabidopsis) (UniProt O22456); experiment: two-hybrid; pGADT7 AD and pGBKT7 BD vectors co-transformed into yeast Y187; quantitative β-galactosidase assay with ONPG (Miller units)
SOC1 [1] = biological target: SOC1 (UniProt O64645); experiment: as above
FLC [2] = biological target: FLC (UniProt Q9S7Q7); experiment: yeast two-hybrid; conditions: p>0.05 (open symbol); parent: 1; read off a plot
FLC [3] = biological target: FLC (UniProt Q9S7Q7); experiment: two-hybrid; pGADT7 AD and pGBKT7 BD vectors co-transformed into yeast Y187; quantitative β-galactosidase assay with ONPG (Miller units)
FLC, SEP3 and SOC1 = experiment: as above
SOC1 [4] = biological target: SOC1 (UniProt O64645); experiment: yeast two-hybrid; conditions: p>0.05 (open symbol); parent: 1; read off a plot

FLC, sequence (Q9S7Q7 whole entry): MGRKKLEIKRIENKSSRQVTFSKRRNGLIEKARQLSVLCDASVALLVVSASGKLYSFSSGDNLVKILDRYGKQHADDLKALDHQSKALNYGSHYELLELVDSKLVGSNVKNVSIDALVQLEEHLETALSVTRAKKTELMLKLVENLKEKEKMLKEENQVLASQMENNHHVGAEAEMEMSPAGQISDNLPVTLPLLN
…3 (Arabidopsis), sequence (O22456 whole entry): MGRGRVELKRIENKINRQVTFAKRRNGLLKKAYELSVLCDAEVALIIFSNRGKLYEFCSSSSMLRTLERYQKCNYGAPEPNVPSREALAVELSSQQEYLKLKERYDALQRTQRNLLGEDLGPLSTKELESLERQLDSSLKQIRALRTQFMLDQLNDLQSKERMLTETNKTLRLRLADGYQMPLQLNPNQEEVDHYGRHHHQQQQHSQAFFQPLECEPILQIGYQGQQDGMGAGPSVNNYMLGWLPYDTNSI
SOC1, sequence (O64645 whole entry): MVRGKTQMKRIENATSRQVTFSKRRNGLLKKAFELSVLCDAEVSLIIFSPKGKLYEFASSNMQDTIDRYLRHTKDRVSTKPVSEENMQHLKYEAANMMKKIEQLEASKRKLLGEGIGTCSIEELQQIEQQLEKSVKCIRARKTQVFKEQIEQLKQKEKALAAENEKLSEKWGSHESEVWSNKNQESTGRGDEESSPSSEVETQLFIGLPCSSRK

**Q.** For “SVP C-domain insertion 220–221 YD (from UniProt Q9FVC1 1-240) (natural protein)”, which percent decrease of binding against wild-type SVP (…3 (Arabidopsis)) is on record?
**A.** 22%

**Q.** What about the percent decrease of binding against wild-type SVP (SOC1 [1]) of the same substance?
**A.** 28%

**Q.** How did the ratio to parent (FLC [2]) turn out when “SHORT … PHASE (from UniProt Q9FVC1) ins220Y-221D” was run?
**A.** 1.1

**Q.** Which results are given for “SVP ins80M (from UniProt Q9FVC1 1-240) (natural protein)”?
**A.** percent decrease of binding against wild-type SVP (…3 (Arabidopsis)): 64%; percent decrease of binding against wild-type SVP (FLC [3]): 64%

**Q.** How did the percent increase of interaction strength against wild-type SVP (…3 (Arabidopsis)) turn out when “SVP Del89V (from UniProt Q9FVC1 1-240) (natural protein)” was run?
**A.** 6%

**Q.** What about the percent decrease of binding against wild-type SVP (SOC1 [1]) of the same substance?
**A.** 86%

**Q.** And the percent decrease of binding against wild-type SVP (FLC [3])?
**A.** 44%

**Q.** How did the percent decrease of binding against wild-type SVP (FLC, SEP3 and SOC1) turn out when “SVP with the unique C-domain insertion 176–196 deleted (from UniProt Q9FVC1 1-240) (natural protein)” was run?
**A.** 84 to 95%

**Q.** SHORT … PHASE, Q9FVC1 ins80M was tested. Which ratio to parent (SOC1 [4]) did it give?
**A.** 0.94

**Q.** What does the source list for “SVP Q127R (from UniProt Q9FVC1 1-240) (natural protein)”?
**A.** percent decrease of binding against wild-type SVP (…3 (Arabidopsis)): 73%; percent increase of binding against wild-type SVP (SOC1 [1]): 40%; percent increase of binding against wild-type SVP (FLC [3]): 40%
